Substitutions are numbered along the chain they refer to.
Assays:
[1] = molecular target: T1, Tth SSB F255P (Rev 101 F225P) (Thermus thermophilus HB8, UniProt Q5SLP9 SEQ:21-283); assay: EMSA; Kd value only in FIG. 12; 50 mM Tris pH 7.5, 50 mM NaCl, 0.1 mM DTT, 60 C 10 min; 0.25 nM oligo; protein 0.1-4 uM; details: chain copies: 2 (inferred); label: 5'-FAM
T1 chain: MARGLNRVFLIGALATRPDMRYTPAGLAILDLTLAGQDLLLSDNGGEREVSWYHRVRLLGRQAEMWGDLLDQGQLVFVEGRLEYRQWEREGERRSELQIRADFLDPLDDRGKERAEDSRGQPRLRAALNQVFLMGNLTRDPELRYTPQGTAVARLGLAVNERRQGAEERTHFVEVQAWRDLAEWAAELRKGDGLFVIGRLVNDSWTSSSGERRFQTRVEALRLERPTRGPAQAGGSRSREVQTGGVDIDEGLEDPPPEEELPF
Description: (§1) An electrophoretic mobility shift assay was used to determine the binding affinity (Kd) for the Tth F255P SSB and Tth SSB. An oligonucleotide of 35 bases labelled at the 5′ end with fluorescein (FAM) dye was used as the substrate. The sequence of the oligonucleotide is 5′ FAM GTGTAGATCTCGGTGGTCGCCGTATCATTAAAAAA (SEQ ID NO: 14). A titration of Tth F255P SSB or Tth SSB was used ranging from 0.1 to 4 μM. The reaction buffer was 50 mM Tris pH 7.5, 50 mM NaCl, and 0.1 mM DTT with each reaction utilizing […] of labelled oligonucleotide. The reactions were incubated at 60° C. for 10 minutes. The reactions were resolved on 10% acrylamide native TBE gel and imaged with Typhoon Scanner. The fraction of bound versus unbound for each concentration tested was determined and fitted for Kd analysis.

Tth SSB (Rev 101) = molecular target: T2, Tth SSB (Rev 101) (Thermus thermophilus HB8, UniProt Q5SLP9 SEQ:21-283); assay: as above; details: chain copies: 2 (inferred); label: 5'-FAM
T2 sequence: T1 chain with P255F
Description: as §1

## GTGTAGATCTCGGTGGTCGCCGTATCATTAAAAAA (ssDNA) [5'-FAM 35-mer oligonucleotide]
[1]
  binding result: binds
Tth SSB (Rev 101)
  binding result: binds

Source: patent US20250215491, “SEQUENCING WITH SINGLE-STRANDED BINDING PROTEINS” (ILLUMINA, INC., published 2025)
